Test results from patent US20250101098A1.

Legend:
Test in all cases: flow cytometry, HEK 293 cells overexpressing the target
[1] = molecular target: human nectin-4 protein expressed on the surface of cells (human) (UniProt Q96NY8)
[2] = molecular target: rat nectin-4 protein expressed on the surface of HEK 293 cells (rat) (UniProt D3ZET1)
[3] = molecular target: cynomolgus monkey nectin-4 protein expressed on the surface of HEK 293 cells (cynomolgus monkey)
[4] = molecular target: mouse nectin-4 protein expressed on the surface of HEK 293 cells (mouse) (UniProt Q8R007)
Sequence of mouse nectin-4 protein expressed on the surface of HEK 293 cells (mouse) (Q8R007 31-508): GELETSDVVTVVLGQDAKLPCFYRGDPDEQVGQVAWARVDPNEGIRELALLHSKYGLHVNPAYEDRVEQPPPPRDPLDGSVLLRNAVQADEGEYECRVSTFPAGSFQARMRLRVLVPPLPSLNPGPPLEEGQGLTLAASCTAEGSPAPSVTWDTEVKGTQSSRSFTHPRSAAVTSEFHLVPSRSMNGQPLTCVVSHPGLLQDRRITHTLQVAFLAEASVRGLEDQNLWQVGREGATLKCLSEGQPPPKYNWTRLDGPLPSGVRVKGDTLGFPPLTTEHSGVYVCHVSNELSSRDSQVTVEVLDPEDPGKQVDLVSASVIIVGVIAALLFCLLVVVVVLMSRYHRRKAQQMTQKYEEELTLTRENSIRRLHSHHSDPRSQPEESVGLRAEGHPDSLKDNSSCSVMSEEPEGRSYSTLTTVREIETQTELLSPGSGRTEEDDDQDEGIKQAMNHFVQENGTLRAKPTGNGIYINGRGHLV

Sequence of human nectin-4 protein expressed on the surface of cells (human) (Q96NY8 32-510 limits assumed): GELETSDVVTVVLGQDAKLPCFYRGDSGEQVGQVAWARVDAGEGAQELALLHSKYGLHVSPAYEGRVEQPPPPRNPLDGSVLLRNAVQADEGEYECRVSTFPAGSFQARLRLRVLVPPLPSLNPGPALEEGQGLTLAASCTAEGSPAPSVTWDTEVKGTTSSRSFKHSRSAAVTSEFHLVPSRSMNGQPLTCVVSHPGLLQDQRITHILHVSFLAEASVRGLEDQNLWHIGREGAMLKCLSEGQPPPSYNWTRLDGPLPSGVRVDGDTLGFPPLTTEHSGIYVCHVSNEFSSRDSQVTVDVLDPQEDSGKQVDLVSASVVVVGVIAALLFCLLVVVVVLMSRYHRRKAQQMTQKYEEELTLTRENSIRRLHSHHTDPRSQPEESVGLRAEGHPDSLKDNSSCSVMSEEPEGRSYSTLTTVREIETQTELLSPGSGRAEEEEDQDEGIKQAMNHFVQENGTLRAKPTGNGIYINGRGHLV

- Flow data [1]: 132
- Flow data [2]: 196
- Flow data [3]: 189
- Flow data [4]: 163
Substance: Anti-FITC Isotype Control (antibody)
